The values below come from patent publication US20210403600A1 (University of California, published 2021).

The target in test [1] is T1, human Factor XIa (blood-derived, Haematologic Technologies Inc.) (human, UniProt P03951 19-387; P03951 388-625).
T1 construct: It was biotinylated via primary amines for selections, Octet and Biacore; also called FXIa; human FXIa
The experiment in a line: ELISA, wells coated with hFXIa, anti-human IgG HRP, OD 450.

The target in test [2] is T1, human Factor XIa (blood-derived, …). The experiment in a line: SPR (Biacore T200), biotinylated FXIa captured on a CAP chip, Fab as analyte, 37 C. (SPR reads the build-up and loss of mass on a sensor chip optically.)
The target in test [3] is T2, Cyno FXI (Macaca fascicularis, UniProt A0A2K5VVW4).
T2 construct: coating antigen 'FXI' of the chart titled 'Cyno FXI/FXIA'; also called cynomolgus monkey FXI (zymogen)
The experiment in a line: ELISA, wells coated with cynomolgus FXI (zymogen), anti-human IgG HRP, OD 450.

The target in test [4] is T1, human Factor XIa (blood-derived, …). The test is described as follows: SPR (Biacore T200), biotinylated FXIa captured on a CAP chip, IgG as analyte, 25 C.

B1: Clone 24 IgG (antibody, V domains shown)
VH: EVQLVQSGAEVKKPGASVKVSCKASGYTFTGYYMHWVRQAPGQGLEWMGWIDPDSGDTNYAQKFQGRVTMTRDTSISTAYMELSRLRSDDTAVYYCARLASGFRDYWGQGTLVTVSS
VL: DIVMTKSPSSLSASVGDRVTITCRASQGIRNDLGWYQQKPGKAPKRLIYAASSLQSGVPSRFSGSGSGTEFTLTISSLQPEDFATYYCLQHDIYASTFGPGTKVDIKR
notes: also called C24
A word on the EC50 (read off the curve): it is the concentration at which the effect is half-maximal. Low readings indicate an effect from little substance, high ones a need for much substance. B1: in test [1], the “EC50 (read off the curve)” value is approximately 1 ng/mL.

B2: DEF Fab (Fab, V domains shown)
VH: EVQLVQSGAEVKKPGASVKVSCKASGYTFTGYYMHWVRQAPGQGLEWMGWIDPDEGDTNYAQKFQGRVTMTRDTSISTAYMELSRLRSDDTAVYYCARLASGFRDYWGQGTLVTVSS
VL: DIVMTKSPSSLSASVGDRVTITCRASQGIRNDLGWYQQKPGKAPKRLIYAASSLQSGVPSRFSGSGSGTEFTLTISSLQPEDFATYYCLQHDIYASTFGPGTKVDIKT
What is called Kd is the constant that tells how readily two partners part at equilibrium. Low readings indicate tighter binding, high ones weaker binding. With B2, the Kd in test [2] came to 0.0339 nM.

B3: C24 Fab (Fab, V domains shown)
VH: EVQLVQSGAEVKKPGASVKVSCKASGYTFTGYYMHWVRQAPGQGLEWMGWIDPDSGDTNYAQKFQGRVTMTRDTSISTAYMELSRLRSDDTAVYYCARLASGFRDYWGQGTLVTVSS
VL: DIVMTKSPSSLSASVGDRVTITCRASQGIRNDLGWYQQKPGKAPKRLIYAASSLQSGVPSRFSGSGSGTEFTLTISSLQPEDFATYYCLQHDIYASTFGPGTKVDIKR
notes: Fab format of clone 24; also called clone 24 Fab; anti-FXIa C24 Fab
For the molecule B3, the Kd in test [2] stood at 0.0152 nM. This Kd is about 2.2-fold lower than that of the molecule before.

B4: D4 IgG (antibody, V domains shown)
VH: not shown
VL: DIVMTQSPSSLSASVGDRVTITCRASQGIRNDLGWYQQKPGKAPKRLIYAASSLQSGVPSRFSGSGSGTEFTLTISSLQPEDFATYYCLQHDIYASTFGPGTKVDIKR
notes: also called D4 mAb; D4 anti-FXIa mAb
B4: in test [3], the binding result was “no binding (tested: not printed)”. Further, binding in test [4] was characterised by a dissociation constant (Kd) of 0.93 nM.
